Laboratory results published in IntAct's records for PubMed 31515488.

B1: Four and a half LIM domains protein 3 (Homo sapiens), Q13643 (parent)
chain: MSESFDCAKCNESLYGRKYIQTDSGPYCVPCYDNTFANTCAECQQLIGHDSRELFYEDRHFHEGCFRCCRCQRSLADEPFTCQDSELLCNDCYCSAFSSQCSACGETVMPGSRKLEYGGQTWHEHCFLCSGCEQPLGSRSFVPDKGAHYCVPCYENKFAPRCARCSKTLTQGGVTYRDQPWHRECLVCTGCQTPLAGQQFTSRDEDPYCVACFGELFAPKCSSCKRPIVGLGGGKYVSFEDRHWHHNCFSCARCSTSLVGQGFVPDGDQVLCQGCSQAGP
B2: Protein FAM9B (Homo sapiens), Q8IZU0 (parent)
chain: MAAWGKKHAGKDPVRDECEERNRFTETREEDVTDEHGEREPFAETDEHTGANTKKPEDTAEDLTAKRKRMKMDKTCSKTKNKSKHALRKKQLKRQKRDYIHSLKLLNVLEEYITDEQKEEEEEEGEEEELIRIFQEQQKKWQQYRSVRRERLKEMKLLRDQFVKALEDFEDLCDRVFSDEDSELDN
partner: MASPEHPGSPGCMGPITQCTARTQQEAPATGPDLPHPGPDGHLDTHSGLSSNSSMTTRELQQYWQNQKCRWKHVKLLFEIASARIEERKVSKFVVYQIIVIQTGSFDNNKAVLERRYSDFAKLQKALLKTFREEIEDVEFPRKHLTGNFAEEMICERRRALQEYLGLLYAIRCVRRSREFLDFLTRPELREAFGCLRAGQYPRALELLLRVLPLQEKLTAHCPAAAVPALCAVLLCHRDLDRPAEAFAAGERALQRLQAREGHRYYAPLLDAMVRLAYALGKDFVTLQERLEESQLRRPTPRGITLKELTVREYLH
B3: Tripartite motif-containing protein 29 (Homo sapiens), Q14134-1 (parent)
chain: MEAADASRSNGSSPEARDARSPSGPSGSLENGTKADGKDAKTTNGHGGEAAEGKSLGSALKPGEGRSALFAGNEWRRPIIQFVESGDDKNSNYFSMDSMEGKRSPYAGLQLGAAKKPPVTFAEKGELRKSIFSESRKPTVSIMEPGETRRNSYPRADTGLFSRSKSGSEEVLCDSCIGNKQKAVKSCLVCQASFCELHLKPHLEGAAFRDHQLLEPIRDFEARKCPVHGKTMELFCQTDQTCICYLCMFQEHKNHSTVTVEEAKAEKETELSLQKEQLQLKIIEIEDEAEKWQKEKDRIKSFTTNEKAILEQNFRDLVRDLEKQKEEVRAALEQREQDAVDQVKVIMDALDERAKVLHEDKQTREQLHSISDSVLFLQEFGALMSNYSLPPPLPTYHVLLEGEGLGQSLGNFKDDLLNVCMRHVEKMCKADLSRNFIERNHMENGGDHRYVNNYTNSFGGEWSAPDTMKRYSMYLTPKGGVRTSYQPSSPGRFTKETTQKNFNNLYGTKGNYTSRVWEYSSSIQNSDNDLPVVQGSSSFSLKGYPSLMRSQSPKAQPQTWKSGKQTMLSHYRPFYVNKGNGIGSNEAP
B4: Zinc finger and BTB domain-containing protein 49 (Homo sapiens), Q6ZSB9 (parent)
chain: MDPVATHSCHLLQQLHEQRIQGLLCDCMLVVKGVCFKAHKNVLAAFSQYFRSLFQNSSSQKNDVFHLDVKNVSGIGQILDFMYTSHLDLNQDNIQVMLDTAQCLQVQNVLSLCHTFLKSATVVQPPGMPCNSTLSLQSTLTPDATCVISENYPPHLLQECSADAQQNKTLDESHPHASPSVNRHHSAGEISKQAPDTSDGSCTELPFKQPNYYYKLRNFYSKQYHKHAAGPSQERVVEQPFAFSTSTDLTTVESQPCAVSHSECILESPEHLPSNFLAQPVNDSAPHPESDATCQQPVKQMRLKKAIHLKKLNFLKSQKYAEQVSEPKSDDGLTKRLESASKNTLEKASSQSAEEKESEEVVSCENFNCISETERPEDPAALEDQSQTLQSQRQYACELCGKPFKHPSNLELHKRSHTGEKPFECNICGKHFSQAGNLQTHLRRHSGEKPYICEICGKRFAASGDVQRHIIIHSGEKPHLCDICGRGFSNFSNLKEHKKTHTADKVFTCDECGKSFNMQRKLVKHRIRHTGERPYSCSACGKCFGGSGDLRRHVRTHTGEKPYTCEICNKCFTRSAVLRRHKKMHCKAGDESPDVLEELSQAIETSDLEKSQSSDSFSQDTSVTLMPVSVKLPVHPVENSVAEFDSHSGGSYCKLRSMIQPHGVSDQEKLSLDPGKLAKPQMQQTQPQAYAYSDVDTPAGGEPLQADGMAMIRSSLAALDNHGGDPLGSRASSTTYRNSEGQFFSSMTLWGLAMKTLQNENELDQ

Variants of: B1
Details: with FAM90A1, Q86YD7
Chain of FAM90A1, Q86YD7 (Q86YD7 whole entry): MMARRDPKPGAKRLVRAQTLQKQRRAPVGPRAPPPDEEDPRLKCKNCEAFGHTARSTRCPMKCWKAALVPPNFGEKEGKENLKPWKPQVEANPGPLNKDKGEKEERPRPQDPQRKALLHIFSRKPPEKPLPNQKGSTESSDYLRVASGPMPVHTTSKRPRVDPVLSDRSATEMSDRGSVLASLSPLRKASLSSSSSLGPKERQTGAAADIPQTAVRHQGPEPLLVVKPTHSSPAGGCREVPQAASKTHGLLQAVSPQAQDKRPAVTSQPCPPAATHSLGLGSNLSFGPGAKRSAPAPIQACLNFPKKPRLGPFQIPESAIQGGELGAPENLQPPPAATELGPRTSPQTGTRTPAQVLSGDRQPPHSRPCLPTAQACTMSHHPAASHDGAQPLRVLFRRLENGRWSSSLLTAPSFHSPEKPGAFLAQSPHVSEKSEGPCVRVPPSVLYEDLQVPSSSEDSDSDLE

| effect of a mutation on the interaction | Variant |
| --- | --- |
| with no effect | MSESFDCAKCNESLYGRKYIQTDSGPYCVPCYDNTFANTCAECQQLIGHDSRELFYEDRHFHEGCFRCCRCQRSLADEPFTCQDSELLCNDCYCSAFSSQCSTCGETVMPGSRKLEYGGQTWHEHCFLCSGCEQPLGSRSFVPDKGAHYCVPCYENKFAPRCARCSKTLTQGGVTYRDQPWHRECLVCTGCQTPLAGQQFTSRDEDPYCVACFGELFAPKCSSCKRPIVGLGGGKYVSFEDRHWHHNCFSCARCSTSLVGQGFVPDGDQVLCQGCSQAGP [A103T] |

Variants of: B1
Details: with gata2_human GATA2, P23769
Chain of gata2_human GATA2, P23769 (P23769 whole entry): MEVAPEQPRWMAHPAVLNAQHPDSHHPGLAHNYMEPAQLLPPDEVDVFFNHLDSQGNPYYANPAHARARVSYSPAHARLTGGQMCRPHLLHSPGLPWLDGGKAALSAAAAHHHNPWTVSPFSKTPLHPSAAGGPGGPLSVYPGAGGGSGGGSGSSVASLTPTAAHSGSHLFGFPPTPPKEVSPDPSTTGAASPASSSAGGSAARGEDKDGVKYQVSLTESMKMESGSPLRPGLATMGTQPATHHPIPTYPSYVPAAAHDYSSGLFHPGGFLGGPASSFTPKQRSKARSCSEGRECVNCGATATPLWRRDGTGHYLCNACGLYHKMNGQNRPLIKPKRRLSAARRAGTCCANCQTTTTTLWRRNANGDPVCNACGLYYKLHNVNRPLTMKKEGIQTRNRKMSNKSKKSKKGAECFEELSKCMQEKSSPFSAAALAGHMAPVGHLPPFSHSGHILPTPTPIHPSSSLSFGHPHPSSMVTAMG

| effect of a mutation on the interaction | Variant |
| --- | --- |
| with no effect | MSESFDCAKCNESLYGRKYIQTDSGPYCVPCYDNTFANTCAECQQLIGHDSRELFYEDRHFHEGCFRCCRCQRSLADEPFTCQDSELLCNDCYCSAFSSQCSACGETVMPGSRKLEYGGQTWHEHCFLCSGCEQPLGSRSFVPDKGAHYCVPCYENKFAPRCARCSKTLTQGGVTYRDQPWHRECLVCTGCQTPLAGQQFTSRDEDPYCVACFGELFAPKCSSCKHPIVGLGGGKYVSFEDRHWHHNCFSCARCSTSLVGQGFVPDGDQVLCQGCSQAGP [R226H] |

Variants of: B2
Details: with snx20_human SNX20, Q7Z614

| effect of a mutation on the interaction | Variant |
| --- | --- |
| with no effect | R23H |

Variants of: B3
Details: with tri23_human TRIM23, P36406
Chain of tri23_human TRIM23, P36406 (P36406 whole entry): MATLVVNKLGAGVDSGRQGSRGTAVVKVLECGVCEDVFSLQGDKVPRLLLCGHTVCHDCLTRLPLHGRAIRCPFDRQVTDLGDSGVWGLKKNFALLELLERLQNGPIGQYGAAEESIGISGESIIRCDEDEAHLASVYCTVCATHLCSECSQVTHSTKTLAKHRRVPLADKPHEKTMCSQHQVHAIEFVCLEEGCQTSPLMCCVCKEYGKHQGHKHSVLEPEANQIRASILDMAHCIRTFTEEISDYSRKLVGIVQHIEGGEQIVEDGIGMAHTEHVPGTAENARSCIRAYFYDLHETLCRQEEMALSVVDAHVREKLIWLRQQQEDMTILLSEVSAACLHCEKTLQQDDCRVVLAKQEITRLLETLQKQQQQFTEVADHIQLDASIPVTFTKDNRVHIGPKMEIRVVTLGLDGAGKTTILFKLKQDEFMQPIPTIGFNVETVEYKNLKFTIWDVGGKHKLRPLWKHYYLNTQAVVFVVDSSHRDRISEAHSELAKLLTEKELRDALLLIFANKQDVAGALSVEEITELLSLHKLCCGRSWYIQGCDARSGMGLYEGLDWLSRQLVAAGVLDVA

| effect of a mutation on the interaction | Variant |
| --- | --- |
| with no effect | MEAADASRSNGSSPEARDARSPSGPSGSLENGTKADGKDAKTTNGHGGEAAEGKSLGSALKPGEGRSALFAGNEWRRPIIQFVESGDDKNSNYFSMDSMEGKRSPYAGLQLGAAKKPPVTFAEKGELRKSIFSESRKPTVSIMEPGETRRNSYPRADTGLFSRSKSGSEEVLCDSCIGNKQKAVKSCLVCQASFCELHLKPHLEGAAFRDHQLLEPIRDFEARKCPVHGKTMELFCQTDQTCICYLCMFQEHKNHSTVTVEEAKAEKETELSLQKEQLQLKIIEIEDEAEKWQKEKDRIKSFTTNEKAILEQNFRDLVRDLEKQKEEVRAALEQREQDAVDQVKVIMDALDERAKVLHEDKQTREQLHSISDSVLFLQEFGALMSNYSLPPPLPTYHVLLEGEGLGQSLGNFKDDLLNVCMRHVEKMCKADLSRNFIERNHMENGGDHRYVNNYTNSFGGEWSAPDTMKRYSMYLTPKGGVRTSYQPSSPGRFTKETTQKNFNNLYGTKGNYTFRVWEYSSSIQNSDNDLPVVQGSSSFSLKGYPSLMRSQSPKAQPQTWKSGKQTMLSHYRPFYVNKGNGIGSNEAP [S514F] |

Variants of: B3
Details: with cep70_human CEP70, Q8NHQ1
Target sequence in this assay (Q8NHQ1 whole entry): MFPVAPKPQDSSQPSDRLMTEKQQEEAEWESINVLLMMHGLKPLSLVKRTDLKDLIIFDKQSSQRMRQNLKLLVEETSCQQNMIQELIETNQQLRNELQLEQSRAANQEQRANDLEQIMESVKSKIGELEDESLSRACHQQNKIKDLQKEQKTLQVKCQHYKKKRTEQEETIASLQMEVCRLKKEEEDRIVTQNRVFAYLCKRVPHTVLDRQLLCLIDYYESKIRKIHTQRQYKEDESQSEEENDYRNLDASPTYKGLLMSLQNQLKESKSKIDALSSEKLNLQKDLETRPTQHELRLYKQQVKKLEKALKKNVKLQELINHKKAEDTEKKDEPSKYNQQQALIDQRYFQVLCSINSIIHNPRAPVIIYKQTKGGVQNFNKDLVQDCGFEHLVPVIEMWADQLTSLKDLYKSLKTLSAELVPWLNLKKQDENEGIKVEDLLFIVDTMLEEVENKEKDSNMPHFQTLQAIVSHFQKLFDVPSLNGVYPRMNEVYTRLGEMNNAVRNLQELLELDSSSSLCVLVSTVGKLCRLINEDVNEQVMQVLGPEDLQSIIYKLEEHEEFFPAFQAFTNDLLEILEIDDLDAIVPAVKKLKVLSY

| effect of a mutation on the interaction | Variant |
| --- | --- |
| disrupting interaction strength | MEAADASRSNGSSPEARDARSPSGPSGSLENGTKADGKDAKTTNGHGGEAAEGKSLGSALKPGEGRSALFAGNEWRRPIIQFVESGDDKNSNYFSMDSMEGKRSPYAGLQLGAAKKPPVTFAEKGELRKSIFSESRKPTVSIMEPGETRRNSYPRADTGLFSRSKSGSEEVLCDSCIGNKQKAVKSCLVCQASFCELHLKPHLEGAAFRDHQLLEPIRDFEARKCPVHGKTMELFCQTDQTCICYLCMFQEHKNHSTVTVEEAKAEKETELSLQKEQLQLKIIEIEDEAEKWQKEKDRIKSFTTNEKAILEQNFRDLVRDLEKQKEEVRAALEQREQDAVDQVKVIMDALDERAKVLHEDKQTREQLHSISDSVLFLQEFGALMSNYSLPPPLPTYHVLLEGEGLGQSLGNFKDDLLNVCMRHVEKMCKADLSRNFIERNHMENGGDHRYVNNYTNSFGGEWSAPDTMKRYSMYLTPKGGVRTSYQPSSPGRFTKETTQKNFNNLYGTKGNYTFRVWEYSSSIQNSDNDLPVVQGSSSFSLKGYPSLMRSQSPKAQPQTWKSGKQTMLSHYRPFYVNKGNGIGSNEAP [S514F] |

Variants of: B3
Details: with tri23_human TRIM23, P36406
Remark: another data set of the same source

| effect of a mutation on the interaction | Variant |
| --- | --- |
| with no effect | MEAADASRSNGSSPEARDARSPSGPSGSLENGTKADGKDAKTTNGHGGEAAEGKSLGSALKPGEGRSALFAGNEWRRPIIQFVESGDDKNCNYFSMDSMEGKRSPYAGLQLGAAKKPPVTFAEKGELRKSIFSESRKPTVSIMEPGETRRNSYPRADTGLFSRSKSGSEEVLCDSCIGNKQKAVKSCLVCQASFCELHLKPHLEGAAFRDHQLLEPIRDFEARKCPVHGKTMELFCQTDQTCICYLCMFQEHKNHSTVTVEEAKAEKETELSLQKEQLQLKIIEIEDEAEKWQKEKDRIKSFTTNEKAILEQNFRDLVRDLEKQKEEVRAALEQREQDAVDQVKVIMDALDERAKVLHEDKQTREQLHSISDSVLFLQEFGALMSNYSLPPPLPTYHVLLEGEGLGQSLGNFKDDLLNVCMRHVEKMCKADLSRNFIERNHMENGGDHRYVNNYTNSFGGEWSAPDTMKRYSMYLTPKGGVRTSYQPSSPGRFTKETTQKNFNNLYGTKGNYTSRVWEYSSSIQNSDNDLPVVQGSSSFSLKGYPSLMRSQSPKAQPQTWKSGKQTMLSHYRPFYVNKGNGIGSNEAP [S91C] |

Variants of: B3
Details: with cep70_human CEP70, Q8NHQ1
Remark: another data set of the same source
Target sequence in this assay (Q8NHQ1 whole entry): as the sequence (Q8NHQ1 whole entry) above

| effect of a mutation on the interaction | Variant |
| --- | --- |
| with no effect | MEAADASRSNGSSPEARDARSPSGPSGSLENGTKADGKDAKTTNGHGGEAAEGKSLGSALKPGEGRSALFAGNEWRRPIIQFVESGDDKNCNYFSMDSMEGKRSPYAGLQLGAAKKPPVTFAEKGELRKSIFSESRKPTVSIMEPGETRRNSYPRADTGLFSRSKSGSEEVLCDSCIGNKQKAVKSCLVCQASFCELHLKPHLEGAAFRDHQLLEPIRDFEARKCPVHGKTMELFCQTDQTCICYLCMFQEHKNHSTVTVEEAKAEKETELSLQKEQLQLKIIEIEDEAEKWQKEKDRIKSFTTNEKAILEQNFRDLVRDLEKQKEEVRAALEQREQDAVDQVKVIMDALDERAKVLHEDKQTREQLHSISDSVLFLQEFGALMSNYSLPPPLPTYHVLLEGEGLGQSLGNFKDDLLNVCMRHVEKMCKADLSRNFIERNHMENGGDHRYVNNYTNSFGGEWSAPDTMKRYSMYLTPKGGVRTSYQPSSPGRFTKETTQKNFNNLYGTKGNYTSRVWEYSSSIQNSDNDLPVVQGSSSFSLKGYPSLMRSQSPKAQPQTWKSGKQTMLSHYRPFYVNKGNGIGSNEAP [S91C] |

Variants of: B4
Details: with gopc_human GOPC

| effect of a mutation on the interaction | Variant |
| --- | --- |
| with no effect | E346K |
| with no effect | G701D |

Variants of: B4
Details: with cep70_human CEP70, Q8NHQ1
Target sequence in this assay (Q8NHQ1 whole entry): as the sequence (Q8NHQ1 whole entry) above

| effect of a mutation on the interaction | Variant |
| --- | --- |
| with no effect | E346K |
| with no effect | G701D |
